Data on four molecules can be found in patent US20250145689A1 (CIRCULAR COMMITMENT, published 2025).

Experiment [1] has as its target Recombinant water soluble mouse PLVAP (extracellular domain, residues 48-438) (mouse) (UniProt Q91VC4). As to the kind of experiment: Scatchard analysis; plate-coated recombinant mouse PLVAP, bound Fab-TF measured by chromogenic TF activity; mean ± SD of 6 batches.
The target is the same in experiment [2]. As to the kind of experiment: told in the legend of the competitive ELISA; method of the comparison not stated.
For experiment [3] the target is unchanged. As to the kind of experiment: competitive ELISA on plate-coated mouse PLVAP; competitor biotinylated MECA32 mAb.
For experiment [4], the target named is T1, Recombinant water soluble mouse PLVAP (extracellular domain, residues 48-438) (mouse, UniProt Q91VC4 48-438).
T1 construct: The cDNA clone (Invitrogen) is not tied to NP_115774.2 in words; His-tag not reported as removed; also called mPLVAP; His-mPLVAP; not shown: His-tag of the pET-15b vector
T1 sequence: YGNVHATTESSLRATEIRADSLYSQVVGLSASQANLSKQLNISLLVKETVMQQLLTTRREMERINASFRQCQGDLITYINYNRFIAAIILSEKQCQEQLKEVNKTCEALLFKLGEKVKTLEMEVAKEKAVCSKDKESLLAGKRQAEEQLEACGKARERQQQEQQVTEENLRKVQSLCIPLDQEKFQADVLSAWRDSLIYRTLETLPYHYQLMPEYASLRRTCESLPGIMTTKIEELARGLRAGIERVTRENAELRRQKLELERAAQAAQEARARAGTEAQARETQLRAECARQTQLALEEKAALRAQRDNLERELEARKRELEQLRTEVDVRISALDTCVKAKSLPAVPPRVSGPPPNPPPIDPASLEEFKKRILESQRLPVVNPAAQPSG
As to the kind of experiment: ELISA on plate-coated mouse PLVAP, detected with biotinylated anti-hTF antibody.

In experiment [5] the target is T2, Recombinant water soluble human PLVAP (extracellular domain, residues 51-442) (human) (UniProt Q9BX97).
T2 sequence: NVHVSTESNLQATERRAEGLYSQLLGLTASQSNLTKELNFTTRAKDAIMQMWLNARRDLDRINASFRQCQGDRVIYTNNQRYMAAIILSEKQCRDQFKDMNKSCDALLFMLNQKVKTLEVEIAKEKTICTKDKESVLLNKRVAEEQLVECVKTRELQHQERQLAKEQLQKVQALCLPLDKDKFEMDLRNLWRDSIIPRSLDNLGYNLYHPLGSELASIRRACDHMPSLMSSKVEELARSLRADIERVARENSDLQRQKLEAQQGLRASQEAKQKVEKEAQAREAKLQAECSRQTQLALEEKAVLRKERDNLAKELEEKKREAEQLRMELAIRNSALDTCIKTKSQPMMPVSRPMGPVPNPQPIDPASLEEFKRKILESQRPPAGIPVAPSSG
As to the kind of experiment: Scatchard analysis; plate-coated recombinant human PLVAP, bound Fab-TF measured by chromogenic TF activity; mean ± SD of 3 batches.

“Fab fragment of MECA32 anti-mouse PLVAP monoclonal antibody co-expressing human tissue factor”: the Kd in experiment [1] turned out to be 57.2 nM. Further, the binding affinity against MECA32 mAb in experiment [2] came out at 1 log lower. With “Rat anti-mouse PLVAP MECA32 monoclonal antibody”, in experiment [3], the potency in competition against MECA32-Fab-TF was found to be 1 log.

B1: Soluble human tissue factor without antibody (other)
chain: SGTTNTVAAYNLTWKSTNFKTILEWEPKPVNQVYTVQISTKSGDWKSKCFYTTDTECDLTDEIVKDVKQTYLARVFSYPAGNVESTGSAGEPLYENSPEFTPYLETNLGQPTIQSFEQVGTKVNVTVEDERTLVRRNNTFLSLRDVFGKDLIYTLYYWKSSSSGKKTAKTNTNEFLIDVDKGENYCFSVQAVIPSRTVNRKSTDSPVECMGQEKGEFRE
notes: also called hTF; control soluble hTF
Regarding B1, the binding result in experiment [4] is listed as “no binding”.

B2: Recombinant Fab fragment of CSRO2 anti-human PLVAP monoclonal antibody co-expressing water-soluble human tissue factor (Fab, part only; not given: Humanized CSRO2 kappa light chain, part only)
heavy: MQVQLVQSGSELKKPGASVKVSCKASGYTFTSNYINWVRQAPGQGLEWMGNIYPSDGFTNYNQKFKDRVTITVDKSTSTAYMELSSLRSEDTAVYYCTRNFDVWGQGTTVTVSSASTKGPSVFPLAPCSRSTSESTAALGCLVKDYFPEPVTVSWNSGALTSGVHTFPAVLQSSGLYSLSSVVTVPSSSLGTKTYTCNVDHKPSNTKVDKRVESKYGPPCPSCPGGGGSGGGGSGGGGSSGTTNTVAAYNLTWKSTNFKTILEWEPKPVNQVYTVQISTKSGDWKSKCFYTTDTECDLTDEIVKDVKQTYLARVFSYPAGNVESTGSAGEPLYENSPEFTPYLETNLGQPTIQSFEQVGTKVNVTVEDERTLVRRNNTFLSLRDVFGKDLIYTLYYWKSSSSGKKTAKTNTNEFLIDVDKGENYCFSVQAVIPSRTVNRKSTDSPVECMGQEKGEFRE
For B2, the dissociation constant Kd in experiment [5] came to 30.7 nM.
